# Experimental data from US20210253718A1, “FRIZZLED5 PROTEIN-BINDING AGENTS” (Modmab Therapeutics Corporation, priority 2016, published 2021).
# Residue numbers refer to the chain shown, from its start.
# T1: FZD6 CRD (Homo sapiens, UniProt O60353)
# T1 construct: S20-P146; GPI anchor signal (C); expressed in transfected cells; host or cells: CHO cells, lentiviral pLenti-puro
# T1 sequence (O60353 20-146): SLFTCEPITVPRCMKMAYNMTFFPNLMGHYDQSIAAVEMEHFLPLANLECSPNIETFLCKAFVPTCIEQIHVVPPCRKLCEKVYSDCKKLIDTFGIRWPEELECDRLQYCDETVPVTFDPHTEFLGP
# T2: FZD8 CRD (Homo sapiens, UniProt Q9H461)
# T2 construct: K31-D155; GPI anchor signal (C); expressed in transfected cells; host or cells: CHO cells, lentiviral pLenti-puro
# T2 sequence (Q9H461 31-155): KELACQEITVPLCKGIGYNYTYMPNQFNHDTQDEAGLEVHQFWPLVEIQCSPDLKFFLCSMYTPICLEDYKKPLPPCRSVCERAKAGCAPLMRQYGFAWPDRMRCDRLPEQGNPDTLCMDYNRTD
# T3: FZD4 CRD (Homo sapiens, UniProt Q9ULV1)
# T3 construct: E42-V167; GPI anchor signal (C); expressed in transfected cells; host or cells: CHO cells, lentiviral pLenti-puro
# T3 sequence (Q9ULV1 42-167): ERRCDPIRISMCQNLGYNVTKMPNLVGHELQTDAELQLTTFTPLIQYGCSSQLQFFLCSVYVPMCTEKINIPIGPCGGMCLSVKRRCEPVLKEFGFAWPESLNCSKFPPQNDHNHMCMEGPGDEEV
# T4: FZD10 CRD (Homo sapiens, UniProt Q9ULW2)
# T4 construct: 30-156; GPI anchor signal (C); expressed in transfected cells; host or cells: CHO cells, lentiviral pLenti-puro
# T4 sequence (Q9ULW2 30-156): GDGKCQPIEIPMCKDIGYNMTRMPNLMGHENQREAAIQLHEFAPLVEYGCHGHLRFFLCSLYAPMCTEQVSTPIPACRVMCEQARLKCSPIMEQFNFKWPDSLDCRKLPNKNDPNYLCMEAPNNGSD
# T5: FZD3 CRD (Homo sapiens, UniProt Q9NPG1)
# T5 construct: CRD of FZD1, FZD2, FZD3, FZD4, FZD5, FZD6, FZD7, FZD8, FZD9 or FZD10; GPI anchor signal (C); expressed in transfected cells; host or cells: CHO cells, lentiviral pLenti-puro
# T5 sequence (Q9NPG1 23-136 limits assumed): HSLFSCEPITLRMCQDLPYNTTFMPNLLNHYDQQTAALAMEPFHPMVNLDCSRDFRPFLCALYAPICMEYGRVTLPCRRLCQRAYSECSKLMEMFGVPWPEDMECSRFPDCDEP
# B1: Fab-2935: anti-FZD5 Fab with antibody variable region Fv-2935; CDR SEQ ID NOs: 35, 36, 74, 111, 150, 178 (antibody, V domains shown)
# VH: EVQLVESGGGLVQPGGSLRLSCAASGFNIYYYYIHWVRQAPGKGLEWVASIYPSSGSTSYADSVKGRFTISADTSKNTAYLQMNSLRAEDTAVYYCARAAFDYWGQGTLVTVSS
# VL: DIQMTQSPSSLSASVGDRVTITCRASQSVSSAVAWYQQKPGKAPKLLIYSASSLYSGVPSRFSGSRSGTDFTLTISSLQPEDFATYYCQQWYGGYALITFGQGTKVEIK
# B2: Fab-2926: anti-FZD5 Fab with antibody variable region Fv-2926; CDR SEQ ID NOs: 35, 36, 65, 103, 141, 173 (antibody, V domains shown)
# VH: B1 VH with Y31S, Y32S, I34M, G56S, A99G, A100G, F101L
# VL: B1 VL with G93H, Y95G, A96S, I98F
# B3: Fab-2936: anti-FZD5 Fab with antibody variable region Fv-2936; CDR SEQ ID NOs: 35, 36, 75, 112, 151, 179 (antibody, V domains shown)
# VH: B1 VH with Y30S, I34M, P53S, F101M
# VL: DIQMTQSPSSLSASVGDRVTITCRASQSVSSAVAWYQQKPGKAPKLLIYSASSLYSGVPSRFSGSRSGTDFTLTISSLQPEDFATYYCQQWYAASLITFGQGTKVEIK
# Molecular target: T1, FZD6 CRD
# Experiment: Immunofluorescence of anti-FZD5 Fab binding to CHO cells overexpressing Frizzled CRD
# Design: key: −: no binding; +: very weak binder; ++: weak binder; +++: good binder; ++++: very good binder
# Conditions: not given
# How it was run: (§1)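 CHO cell lines each displaying a myc-tagged Frizzled CRD on the plasma membrane via GPI anchor. Recombinant anti-FZD5 Fab binding detected by immunofluorescence and flow cytometry.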
row,"Immunofluorescence binding, Frizzled CRD overexpressed on CHO cells: FZD6",Molecule
1,−,B1
2,−,B2
3,−,B3

# Molecular target: T2, FZD8 CRD
# Experiment: as above
# Design: key: −: no binding; +: very weak binder; ++: weak binder; +++: good binder; ++++: very good binder
# Conditions: not given
# How it was run: as §1
row,"Immunofluorescence binding, Frizzled CRD overexpressed on CHO cells: FZD8",Molecule
1,+,B1
2,+,B2
3,+,B3

# Molecular target: T6, FZD7 CRD (Homo sapiens, UniProt O75084)
# T6 construct: D45-S169; GPI anchor signal (C); expressed in transfected cells; host or cells: CHO cells, lentiviral pLenti-puro
# Experiment: as above
# Design: key: −: no binding; +: very weak binder; ++: weak binder; +++: good binder; ++++: very good binder
# Conditions: not given
# How it was run: as §1
row,"Immunofluorescence binding, Frizzled CRD overexpressed on CHO cells: FZD7",Molecule
1,−,B1
2,−,B2
3,−,B3

# Molecular target: T3, FZD4 CRD
# Experiment: as above
# Design: key: −: no binding; +: very weak binder; ++: weak binder; +++: good binder; ++++: very good binder
# Conditions: not given
# How it was run: as §1
row,"Immunofluorescence binding, Frizzled CRD overexpressed on CHO cells: FZD4",Molecule
1,−,B1
2,−,B2
3,−,B3

# Molecular target: T4, FZD10 CRD
# Experiment: as above
# Design: key: −: no binding; +: very weak binder; ++: weak binder; +++: good binder; ++++: very good binder
# Conditions: not given
# How it was run: as §1
row,"Immunofluorescence binding, Frizzled CRD overexpressed on CHO cells: FZD10",Molecule
1,−,B1
2,−,B2
3,−,B3

# Molecular target: T5, FZD3 CRD
# Experiment: as above
# Design: key: −: no binding; +: very weak binder; ++: weak binder; +++: good binder; ++++: very good binder
# Conditions: not given
# How it was run: as §1
row,"Immunofluorescence binding, Frizzled CRD overexpressed on CHO cells: FZD3",Molecule
1,−,B1
2,−,B2
3,−,B3

# Molecular target: T7, FZD2 CRD (Homo sapiens, UniProt Q14332)
# T7 construct: D35-P161; GPI anchor signal (C); expressed in transfected cells; host or cells: CHO cells, lentiviral pLenti-puro
# Experiment: as above
# Design: key: −: no binding; +: very weak binder; ++: weak binder; +++: good binder; ++++: very good binder
# Conditions: not given
# How it was run: as §1
row,"Immunofluorescence binding, Frizzled CRD overexpressed on CHO cells: FZD2",Molecule
1,−,B1
2,−,B2
3,−,B3

# System: ASPC-1 cells
# Experiment: Effect of anti-FZD5 Fabs on proliferation of pancreatic cancer cell lines (percent growth inhibition)
# Assay type: cell-based, human
# Conditions: Fab 2 μg/ml
row,Molecule,"percent growth inhibition, ASPC-1 2 μg/ml [%]"
1,B1,4.75
2,B2,17.27
3,B3,17.01

# System: RWP1 cells
# Experiment: as above
# Assay type: cell-based, human
# Conditions: Fab 2 μg/ml
row,Molecule,"percent growth inhibition, RWP1 2 μg/ml [%]"
1,B1,−14.51
2,B2,37.95
3,B3,0.02
